# Columns and labels:
# [1] = molecular target: T1, GUCY2C-Fc蛋白 (human GUCY2C extracellular region fused to human IgG1 Fc) (human, UniProt P25092 24-430); assay: ELISA, GUCY2C-Fc coated, anti-human IgG Fab HRP (Table 18)
# T1 construct: extracellular domain; Made in HEK-293F with an unspecified N-terminal signal peptide; also called 人GUCY2C-Fc蛋白; not shown: human IgG1 Fc at the C-terminus in place of the 6xHis tag
# CD3ε-ECD-his [2] = molecular target: T2, CD3ε-ECD-his (UniProt P07766 23-126); assay: ELISA, CD3ε-ECD-his coated at 1 ug/mL (Table 19)
# T2 construct: extracellular domain; also called CD3ε蛋白
# T2 sequence (P07766 other isoform, or with tags, fused parts or gaps): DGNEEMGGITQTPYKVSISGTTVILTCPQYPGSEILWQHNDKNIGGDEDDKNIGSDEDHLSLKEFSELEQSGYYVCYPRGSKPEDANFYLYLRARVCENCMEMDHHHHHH
# [3] = molecular target: T3, GUCY2C-His蛋白 (human GUCY2C extracellular region with C-terminal 6xHis) (human, UniProt P25092 24-430); assay: ELISA, GUCY2C-His coated, anti-human IgG Fab HRP (Table 17)
# T3 construct: extracellular domain; Made in HEK-293F with an unspecified N-terminal signal peptide; also called 人GUCY2C-His蛋白
# T3 sequence (P25092 other isoform, or with tags, fused parts or gaps): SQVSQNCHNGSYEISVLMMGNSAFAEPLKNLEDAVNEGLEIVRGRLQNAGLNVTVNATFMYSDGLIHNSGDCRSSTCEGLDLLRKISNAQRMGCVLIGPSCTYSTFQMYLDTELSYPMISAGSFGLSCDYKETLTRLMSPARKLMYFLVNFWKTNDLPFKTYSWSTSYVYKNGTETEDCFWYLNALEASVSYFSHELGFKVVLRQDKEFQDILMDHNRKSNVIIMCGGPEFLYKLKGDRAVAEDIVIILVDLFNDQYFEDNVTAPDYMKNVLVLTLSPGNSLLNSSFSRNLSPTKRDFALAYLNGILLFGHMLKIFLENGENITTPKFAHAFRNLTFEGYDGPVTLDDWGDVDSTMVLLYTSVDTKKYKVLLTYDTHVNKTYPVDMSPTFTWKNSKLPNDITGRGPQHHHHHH
# CD3ε-ECD-his [4] = molecular target: T2, CD3ε-ECD-his; assay: ELISA, CD3ε-ECD-his coated; reference SP34
# T1 sequence (P25092 24-430 limits assumed): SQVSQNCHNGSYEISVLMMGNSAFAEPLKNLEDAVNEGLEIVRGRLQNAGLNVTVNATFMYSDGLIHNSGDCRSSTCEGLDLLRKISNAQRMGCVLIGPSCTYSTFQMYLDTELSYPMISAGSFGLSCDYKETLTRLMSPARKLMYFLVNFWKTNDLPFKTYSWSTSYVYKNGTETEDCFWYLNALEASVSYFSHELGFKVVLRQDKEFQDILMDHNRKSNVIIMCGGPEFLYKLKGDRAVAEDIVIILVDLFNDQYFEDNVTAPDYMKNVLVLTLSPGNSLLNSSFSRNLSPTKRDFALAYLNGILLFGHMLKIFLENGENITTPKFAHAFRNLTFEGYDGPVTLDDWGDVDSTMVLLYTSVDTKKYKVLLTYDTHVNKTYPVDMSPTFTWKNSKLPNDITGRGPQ
Binder,EC50 [1],EC50 (CD3ε-ECD-his [2]),EC50 [3],fold weaker affinity than SP34 (CD3ε-ECD-his [4])
SP4VHL-32H2-hik (bispecific antibody) chain 1: EVQLVESGGGLVQPGGSLRLSCAASGFTFNTYAMNWVRQAPGKGLEWVARIRSKYNNYATYYADSVKDRFTISRDDSKNTLYLQMNSLRAEDTAVYYCVRHGNFGNSYVSWFAYWGQGTLVTVSSGGGGSGGGGSGGGGSGGGGSQAVVTQEPSLTVSPGGTVTLTCRSSTGAVTTSNYANWVQQKPGQAPRGLIGGTNKRAPGVPARFSGSLLGGKAALTLSGAQPEDEAEYYCALWYSNLWVFGQGTKVEIKGGGGSGGGGSGGGGSEVQLVESGGGLVKPGGSLRLSCAASGFSFRTYAMSWVRQAPGKSLEWVATISSGSSYIYYPDSVKGRFTVSRDNAKNSLYLQMNSLRAEDTAVYYCTCYRMETFEYWGQGTLVTVSSASTKGPSVFPLAPSSKSTSGGTAALGCLVKDYFPEPVTVSWNSGALTSGVHTFPAVLQSSGLYSLSSVVTVPSSSLGTQTYICNVNHKPSNTKVDKKVEPKSCDKTHTCPPCPAPELLGGPSVFLFPPKPKDTLMISRTPEVTCVVVDVSHEDPEVKFNWYVDGVEVHNAKTKPREEQYNSTYRVVSVLTVLHQDWLNGKEYKCKVSNKALPAPIEKTISKAKGQPREPQVYTLPPCREEMTKNQVSLSCAVKGFYPSDIAVEWESNGQPENNYKTTPPVLDSDGSFFLVSKLTVDKSRWQQGNVFSCSVMHEALHNHYTQKSLSLSPGK chain 2: not shown chain 3: DVVMTQSPLSLPVTLGQPASISCRSSQSLVYNNGNTYLHWYQQRPGQSPRLLIYKVSNRFSGVPDRFSGSGSGTDFTLKISRVEAEDVGVYFCSQSTHVPLTFGQGTKVEIKRTVAAPSVFIFPPSDEQLKSGTASVVCLLNNFYPREAKVQWKVDNALQSGNSQESVTEQDSKDSTYSLSSTLTLSKADYEKHKVYACEVTHQGLSSPVTKSFNRGEC,1.08 nM,4.02 nM,0.733 nM,~10 fold
SP4VHL-32H2-KIH (bispecific antibody) chain 1: not shown chain 2: EVQLVESGGGLVKPGGSLRLSCAASGFSFRTYAMSWVRQAPGKSLEWVATISSGSSYIYYPDSVKGRFTVSRDNAKNSLYLQMNSLRAEDTAVYYCTCYRMETFEYWGQGTLVTVSSASTKGPSVFPLAPSSKSTSGGTAALGCLVKDYFPEPVTVSWNSGALTSGVHTFPAVLQSSGLYSLSSVVTVPSSSLGTQTYICNVNHKPSNTKVDKKVEPKSCDKTHTCPPCPAPELLGGPSVFLFPPKPKDTLMISRTPEVTCVVVDVSHEDPEVKFNWYVDGVEVHNAKTKPREEQYNSTYRVVSVLTVLHQDWLNGKEYKCKVSNKALPAPIEKTISKAKGQPREPQVYTLPPCREEMTKNQVSLSCAVKGFYPSDIAVEWESNGQPENNYKTTPPVLDSDGSFFLVSKLTVDKSRWQQGNVFSCSVMHEALHNHYTQKSLSLSPGK chain 3: DVVMTQSPLSLPVTLGQPASISCRSSQSLVYNNGNTYLHWYQQRPGQSPRLLIYKVSNRFSGVPDRFSGSGSGTDFTLKISRVEAEDVGVYFCSQSTHVPLTFGQGTKVEIKRTVAAPSVFIFPPSDEQLKSGTASVVCLLNNFYPREAKVQWKVDNALQSGNSQESVTEQDSKDSTYSLSSTLTLSKADYEKHKVYACEVTHQGLSSPVTKSFNRGEC,0.752 nM,2.37 nM,0.405 nM,~10 fold
"SP34 (humanized anti-CD3 monoclonal antibody) (antibody, human IgG1, kappa, V domains shown, Full-length humanized IgG1/kappa made in HEK293F and purified on Protein A; also called SP34-HC/SP34-LC) VH: EVQLVESGGGLVQPGGSLRLSCAASGFTFNTYAMNWVRQAPGKGLEWVARIRSKYNNYATYYADSVKDRFTISRDDSKNTLYLQMNSLRAEDTAVYYCVRHGNFGNSYVSWFAYWGQGTLVTVSS VL: QAVVTQEPSLTVSPGGTVTLTCRSSTGAVTTSNYANWVQQKPGQAPRGLIGGTNKRAPGVPARFSGSLLGGKAALTLSGAQPEDEAEYYCALWYSNLWVFGQGTKVEIKR",,0.154 nM,,

# Reference: CN116284426A (SUNSHINE GUOJIAN PHARMACEUTICAL SHANGHAI CO LTD, dated 2023)
